Test results from the nanobody polyreactivity screen of Harvey et al. (2022).

Experiment: yeast display, Sf9 membrane polyspecificity reagent, FACS + sequencing; frameworks hold sequencing errors
Outline: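 Galactose induction of a Saccharomyces cerevisiae BJ5465 synthetic nanobody display library ran 36–48 hours. The cells were then stained for 1 hour at 4 °C with 10% biotinylated, detergent-solubilized Sf9 membrane reagent, pulled down on streptavidin microbeads and FACS-sorted into low and high (top ~1%) gates on expression and reagent-binding fluorescence. Labels for polyreactivity follow the gate of origin.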

Sequence | polyreactivity (PSR sort gate)
QVQLVESGGGLVQAGGSLRLSCAASGFIFPYYTMGWYGQARGKERELVAAISYSGGSTYYADSVKGRFTISRDKAKNTVYLQMNSLKPEDTAVYYCNADPPLIVYKVWFLLDYWGQGTQVTVTS | high polyreactivity
QVQLVESGGGLVQAGGSLRLSCAASGFIFQDNAMGWYRQAPGKERELVAAIRSTGSTNYADSVKGRFTISRDNAKNTVYLQMNSLKPEDTAVYYCNAGKYQSDTPSLVPTEYPAFYYWGQGTQVTVSS | low polyreactivity
QVQLVESGGGLVQAGGSLRLSCAASGFIFQDYAMGWYRQAPGKERELVAAITQSSGSTYYADSVKGRFTISRDNAKNTVYLQMNSLKPEDTAVYYCNTAYDFSRQASYDYWGQVTQVTVSS | low polyreactivity
QVQLVESGGGLVQAGGSLRLSCAASGFIFQKYAMGWYRQAPGKERELVAAISRSGGSTYYADSVKGRFTISRDNAKNTVYLQMNSLKPEDTAVYYCNAVYSTSRDYWGQGTQVTVSS | high polyreactivity
QVQLVESGGGLVQAGGSLRLSCAASGFIFQPYAMGWYRQAPGKERELVAAINFSGGSTYYADSVKGRFTISRDNAKNTVYLQMNSLKPEDTAVYYCARAGRYAAYSPFYYWGQGTQVTVSS | high polyreactivity
QVQLVESGGGLVQAGGSLRLSCAASGFIFQRYAMGWYRQAPGKERELVAAISWSGGITYYADSVKGRFTISRDNAKNTVYLQMNSLKPEDTAVYYCAAGLAVGDYYWGQGTQVTVSS | high polyreactivity
QVQLVESGGGLVQAGGSLRLSCAASGFIFQSYAMGWYRQAPGKERELVAAISSRGGSTYYADSVKGRFTISRDIAKNTVYLQMNSLKPEDTAVYYCAADLYGNEYDYWGQGTQVTVSS | low polyreactivity
QVQLVESGGGLVQAGGSLRLSCAASGFIFQSYAMGWYRQAPGKERQLVAAISYTGGSTYYADSVKGRFTISRDNAKNTVYLQMNSLKPEDTAVYYCARSYYTNGNALKRDYWGQGTQVTVSS | high polyreactivity
QVQLVESGGGLVQAGGSLRLSCAASGFIFQTNVMGGYRQAPGKERELVAAISSGYSTYYADSVKGRFTISRDNAKNTVYLQMNSLKPEDTAVYNCAADVLGTTTTVGGFNYWGQGTQVTVSS | low polyreactivity
QVQLVESGGGLVQAGGSLRLSCAASGFIFQYYAMGWYRQAPGKERELVAAISFSGGSTYYADSVKGRFTISRANAKNTVYLPMNSLKPEDTAVYYCAAEVYSGGDYSGHDYYWGQGTQVTVSS | low polyreactivity
QVQLVESGGGLVQAGGSLRLSCAASGFIFQYYSMGWYRQAPGKERELVATITSRGGSTYYADSVKGRFTISRDNAKNTVYLQMNSLKPEDTAFYYCNARSSSPRKYGYWGQGTQVTVSS | high polyreactivity
QVQLVESGGGLVQAGGSLRLSCAASGFIFRAYAMGWYRQAPGKERELVAAISYSGGSTYYADSVKGRFTISRDNAKNTVYLQMNSLKPEDTAVYYCAALTIRVGSLGRDYWGQGTQVTVSS | low polyreactivity
QVQLVESGGGLVQAGGSLRLSCAASGFIFRDNAMGWYRQAPGKERELVAAISERGGRTYYADSVKGRFTISRDNAKNTVYLQMNSLKPEDTAVYYCAAEDIANFYYWGQGTQVTVSS | high polyreactivity
QVQLVESGGGLVQAGGSLRLSCAASGFIFRDYEMGWYRQAPGKERELVAAISWRGGTYYADSVKGRFTISRDNAKNTVYLQMNSLKPEDTAGYYCNATRYRLRPSGVRYKYNYWGQGTQVTVSS | low polyreactivity
QVQLVESGGGLVQAGGSLRLSCAASGFIFRFNAMGWYRQAPGKERELVAAITYRGITYYADSVKGRFTISRDNAKNTVYLQMNSLKPEDTAVYYCAKRTSARGLYGVYFGRYEYWGQGTQVTVSS | high polyreactivity
QVQLVESGGGLVQAGGSLRLSCAASGFIFRFYAMGWYRQAPGKEREVVAVISRSGGSTYYADSVKGRFTISRDHAKNTVYLQMNSLKPEDTAVYYCAATFYWDSVRRGDYDYWGQGTQVTGSS | high polyreactivity
QVQLVESGGGLVQAGGSLRLSCAASGFIFRGNARGWYRQAPGKERELVAAISVRGGRTYYADSVKGRFTISRDNAKNTVYLQMNSLKPEDTAVYDCAADLYNRGRGSSQSYRTGYDYWGQGTQVTVSS | high polyreactivity
QVQLVESGGGLVQAGGSLRLSCAASGFIFRGYAMGWYRQAPGKERELVAVISRSGTSTYYADSVKGRFTISRDNAKNTVYLQMNSLKPEDTAVYYCAKEVWPRYIRQAYLSGYESWGQGTQVTVSS | high polyreactivity
QVQLVESGGGLVQAGGSLRLSCAASGFIFRHNAMGWYRPAPGTEREFVAAISISGGSTYYADSVKGRFTISRDNAKNTVYLQMNSLKPEDTAVYYCNARSLGNTYLLYDYWGQGTQVTVSS | low polyreactivity
QVQLVESGGGLVQAGGSLRLSCAASGFIFRKYAMGWYRQAPGKERELVAAITSSGGSTYYADSVKGRFTISRDNAKNTVYLQMNSLKPEDTAVYYCAARLKQSGHDYWGQGTQVTVSS | high polyreactivity
QVQLVESGGGLVQAGGSLRLSCAASGFIFRKYGMGWYRQAPGKERELVAAIRFTGGSTRYADSVKGRFTISRDNAKNTVYLQMNSLKPEDTAVYYCNADRVYVRGRFTYDYWGQGTQVTVSS | low polyreactivity
QVQLVESGGGLVQAGGSLRLSCAASGFIFRNYAMGWNTQAPGKERELVAAISRSVGRTYYADSVKGRFTISRDNAKNTVYLQMNSLKPEDPAVYYCAVHIYGIGFYFTYLYVNGYDYWGQGTQVTVSS | high polyreactivity

Sequence | polyreactivity (PSR sort gate)
QVQLVESGGGLVQAGGSLRLSCAASGFIFRNYAMGWYRQAPGKERELVAAISRGGRTNYADSVKGLFTISRDNAKNTVYLQMNSLKPEDTAVYYCNAVTVGLYDYWGQVTQVTVSS | high polyreactivity
QVQLVESGGGLVQAGGSLRLSCAASGFIFRQYAMGWYRQAPGKERELVAAISRSGGSTYYADSVKGRFTISRDNAKNTVYLQMNSLKPEDTAVYYCAVRYNQWYLNFGRYDYWGQGTQVTVSS | high polyreactivity
QVQLVESGGGLVQAGGSLRLSCAASGFIFRRNAMGWYRPAPGKERELVAAITKSGGSTYYADSVKGRFTISRDNAKNTVYLQMNSLKPEDTAVYYCAAPYSAKELYYRMDYWGQGTQVTVSS | high polyreactivity
QVQLVESGGGLVQAGGSLRLSCAASGFIFRRYAMGWYRQAPGKERELVAAITAGGGNTYYADSVKGRFTISRDNAKNTVYLQMHSLKPEDTAVYYCAAAGRWYYHGYNYWGQGTQVTVSS | high polyreactivity
QVQLVESGGGLVQAGGSLRLSCAASGFIFRRYAMGWYRQAPGKERELVASISWSGGSTYYADSVKGRFTISRDNAKNTVYLQMNSLKPEDTAVYYCAKGGYYSRYYSYGYWGQGTQVTVSS | high polyreactivity
QVQLVESGGGLVQAGGSLRLSCAASGFIFRRYSMGRYRQAPAKERELVAASTSGGGRTYYADSVKGRFTISRDNAKNTVYLQMNSLKPEDTAVYYCARVQRGDYDYWGQGTQVTVSS | high polyreactivity
QVQLVESGGGLVQAGGSLRLSCAASGFIFRRYVMGWYRQAPGKERELVAAISTSGGSTYYADSVKGRFTISRDNAKNSVYLQMNSLKPADTAVYYCNKAVGVTGFDYWGQGTEVTVSS | high polyreactivity
QVQLVESGGGLVQAGGSLRLSCAASGFIFRSYAMGWYRQAPGKERELVAAISSSGGRTYYADSVKGRFTISRDNAKNTVYLQMNSLKPEDTAVYYCATSLYTDNSWDNYWGQGTQVTVSS | high polyreactivity
QVQLVESGGGLVQAGGSLRLSCAASGFIFRTNAMGRYRQAPGKEREFVAAIRWSGGSTYYADSVKGRFTISRDNAKKTVYLQMNSLKPEDTAVYYCAAEIYLSTYFYPHSIYDYWGQGTQVTVSS | high polyreactivity
QVQLVESGGGLVQAGGSLRLSCAASGFIFRTYAMGWYRQAPGKERDLVAAISWRGGSTYYADSVKGRFTISRDNAKNTVYLQMNSLKPEDTAVYYCAKDTTRGVYRSWPKDMDYWGQGTQVTVSS | low polyreactivity
QVQLVESGGGLVQAGGSLRLSCAASGFIFRVYAMGWYRQAPGKERELVAAITRNGGSTYYADSVKGRFTISRDNAKNTVYLQMNSLKPEDTAVYYCATVYSFGQNRDYWGQGTQVTVSS | high polyreactivity
QVQLVESGGGLVQAGGSLRLSCAASGFIFRWYAMGWYRQAPGKERELVAAISRSGDSTYYADSVKGRFTISRDNAKNTVYLQMNSLKPEDTAVYYCAADDRYYTYGYDYWGQGTQVTVSS | low polyreactivity
QVQLVESGGGLVQAGGSLRLSCAASGFIFRYNAMGWYRQAPGKERELVAVITSGGRTYYADSVKGRFTISRDNAKNTVYLQMNSLKPEDTAVYYCNADSRHRRNYDYWGQGTQVTVSS | high polyreactivity
QVQLVESGGGLVQAGGSLRLSCAASGFIFRYYAMGWSRQAPGIEMELVAAINASGGRTYYADSVKGRFTISRDNARNTVYLQMNSLKPEDTAVYYCAAYRSYQTFDYWGQGTQVTVSS | high polyreactivity
QVQLVESGGGLVQAGGSLRLSCAASGFIFRYYAMGWSRQAPGKERELVAAITSGGRTSYADSVKGRFTISRDNAKNTVYLQMNSLKPEDTAVYYCAKDSYRQRYGSMEYWGQGTQVTVSS | high polyreactivity
QVQLVESGGGLVQAGGSLRLSCAASGFIFRYYAMGWYRQAPGKERELVAAIRGNSGNTYYADSVKGRFTISRDNAKNTVYLQMNSLKPEDTAVYYCAKPFNIWGQGTQVTVSS | high polyreactivity
QVQLVESGGGLVQAGGSLRLSCAASGFIFRYYAMGWYRQAPGKERELVAAISKRGGRTYYADSVKGRFTISRDNAKNTVYLQMNSLKPEDTAVYYCAAGVGTVAPDMDYWGQGTQVTVSS | high polyreactivity
QVQLVESGGGLVQAGGSLRLSCAASGFIFRYYAMGWYRQAPGKERELVAAISRIGGSSYYADSVKGRFTISRDNAKNTVYLQMNSPKPEVTAVYYCAVAEGYYPAYLRDYWGQGTQVTVSS | high polyreactivity
QVQLVESGGGLVQAGGSLRLSCAASGFIFRYYAMGWYRQAPGKERELVAAISSRGSTYYADSVKGRFTISRDNAKNTVYLQMNRLKPEYTALYYCAARGGYRLRYIPYVRYDYWGQGTQLTVSS | high polyreactivity
QVQLVESGGGLVQAGGSLRLSCAASGFIFRYYAMGWYRQAPGKERELVAAISWRGGTTYYADSVKGRFTFSRDNAKNTVYLQMNSLKPDDTAVYYCAADWQWDLGPYIYQVEYWGQGTQVTVSS | high polyreactivity
QVQLVESGGGLVQAGGSLRLSCAASGFIFRYYAMGWYRQAPGKERELVAAISWSGGSTYYADSVKGRFTISRDNAKNTVYLQMNSLKPEDTAVYYCNARYKYLFTVSRYDYWGQGTQVTVSS | high polyreactivity
